B1: Coatomer subunit alpha (Saccharomyces cerevisiae), P53622 (parent)
chain: MKMLTKFESKSTRAKGIAFHPSRPWVLVALFSSTIQLWDYRMGTLLHRFEDHEGPVRGLDFHPTQPIFVSAGDDYTIKVWSLDTNKCLYTLTGHLDYVRTVFFHRELPWIISASDDQTIRIWNWQNRKEIACLTGHNHFVMCAQFHPTDDLIVSASLDETIRIWDISGLRKRHSAPGTSSFEEQMSAQQNLLDGSLGDCVVKFILEGHTRGVNWASFHPTLPLIVSGSDDRQVKLWRMSATKAWEVDTCRGHTNNVDSVIFHPHQNLIISVGEDKTLRVWDLDKRTPVKQFKRENDRFWLIAAHPHINLFGAAHDSGIMVFKLDRERPCSFIHQNQLFFVNAEKQIQSFNFQKRVASLPYASLKGIGQPWDAFRSISYNPSQHSVLVNEANGKFALVILPKQPVGAVEPTSVTQDTGNFATFVGRNRFVVYNKNTESVEVRSLENKVTRNIKVEETVRTIVAAGPGSVLVIHPREVILYDVQQGKKVSQLAVKNVKYVSWSLDGQYVALMSKHTITLATKKLELINSMHETIRIKSAAWDETGVLIYSTLNHIRYSLLNGDRGIIKTLEKTLYITKVQGKLVYCLNREGEIEILTIDPTEYRFKKALVNKNFPEVLRLIKDSNLVGQNIISYLQKSGYPEIALQFVQDPHIRFDLALEYGNLDVALDEAKKLNDSSTWERLIQEALAQGNASLAEMIYQTQHSFDKLSFLYLVTGDVNKLSKMQNIAQTREDFGSMLLNTFYNNSTKERSSIFAEGGSLPLAYAVAKANGDEAAASAFLEQAEVDEQDVTLPDQMDASNFVQRPVISKPLEKWPLKEAELSYFEKAVLGQIDDLTIDDETPAVNTTQEQEEPLGEENFNDEDIGEDEGAWDLGDEDLDVGEELPEEVEQGEITSPAQEVETAIWIKNSKLPAVLVAAGAFDAAVQALSKQVGVVKLEPLKKYFTNIYEGCRTYIPSTPCELPAQLGYVRAYDDTVSEDQILPYVPGLDVVNEKMNEGYKNFKLNKPDIAIECFREAIYRITLLMVDDAEDEKLAHKILETAREYILGLSIELERRSLKEGNTVRMLELAAYFTKAKLSPIHRTNALQVAMSQHFKHKNFLQASYFAGEFLKIISSGPRAEQARKIKNKADSMASDAIPIDFDPYAKFDICAATYKPIYEDTPSVSDPLTGSKYVITEKDKIDRIAMISKIGAPASGLRIRV
partner: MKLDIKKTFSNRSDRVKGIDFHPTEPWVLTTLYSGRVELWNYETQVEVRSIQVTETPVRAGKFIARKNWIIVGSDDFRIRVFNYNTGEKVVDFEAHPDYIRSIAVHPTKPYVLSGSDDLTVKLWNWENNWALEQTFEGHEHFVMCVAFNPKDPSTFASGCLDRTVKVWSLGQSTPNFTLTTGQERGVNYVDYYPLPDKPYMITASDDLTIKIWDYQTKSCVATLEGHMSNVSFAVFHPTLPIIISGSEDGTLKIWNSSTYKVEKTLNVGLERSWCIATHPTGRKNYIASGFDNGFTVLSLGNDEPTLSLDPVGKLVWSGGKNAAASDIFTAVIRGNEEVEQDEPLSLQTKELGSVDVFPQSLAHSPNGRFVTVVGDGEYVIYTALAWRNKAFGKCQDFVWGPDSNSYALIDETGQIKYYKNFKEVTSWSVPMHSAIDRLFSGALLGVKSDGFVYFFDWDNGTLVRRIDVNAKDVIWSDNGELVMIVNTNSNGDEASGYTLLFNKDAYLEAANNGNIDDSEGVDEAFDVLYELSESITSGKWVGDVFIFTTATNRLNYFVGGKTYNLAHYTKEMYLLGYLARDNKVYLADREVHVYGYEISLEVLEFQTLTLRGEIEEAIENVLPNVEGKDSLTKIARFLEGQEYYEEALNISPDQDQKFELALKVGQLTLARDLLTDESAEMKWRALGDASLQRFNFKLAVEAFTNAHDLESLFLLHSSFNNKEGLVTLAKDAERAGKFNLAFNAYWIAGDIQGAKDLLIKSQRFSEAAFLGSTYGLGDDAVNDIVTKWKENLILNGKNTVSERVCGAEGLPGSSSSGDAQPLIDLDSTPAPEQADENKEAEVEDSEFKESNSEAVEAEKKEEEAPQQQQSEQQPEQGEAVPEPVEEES

Variants of: B1
Settings: with copb2_yeast SEC27, P41811

effect of a mutation on the interaction	Variant
decreasing interaction	S1188F
